Measured values taken from article PMC6370633, “Mechanistic Insight Into the Interaction Between Helicobacter pylori Urease Subunit α and Its Molecular Chaperone Hsp60” (Frontiers in Microbiology, 2019).
Numbering of substitutions follows the chain as printed.

T1: UreA-GST (UreA fused with GST tag on its C-terminus) (Helicobacter pylori 26695, UniProt P14916 1-238)
T1 construct: source: E. coli BL21(DE3), supernatant immobilized on glutathione Sepharose 4B beads; not shown: GST, C-terminal, kept
T1 sequence: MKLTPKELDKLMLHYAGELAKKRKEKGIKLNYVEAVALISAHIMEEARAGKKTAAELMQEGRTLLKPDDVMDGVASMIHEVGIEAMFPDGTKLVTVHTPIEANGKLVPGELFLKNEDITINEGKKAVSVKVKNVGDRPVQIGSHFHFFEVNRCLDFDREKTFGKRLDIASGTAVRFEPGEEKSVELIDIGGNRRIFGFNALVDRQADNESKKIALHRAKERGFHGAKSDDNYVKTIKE

B1: Helicobacter pylori Hsp60 with a 6 × His tag on its C terminus (natural protein, Helicobacter pylori 26695, UniProt P42383 1-546, looked up)
chain: MAKEIKFSDSARNLLFEGVRQLHDAVKVTMGPRGRNVLIQKSYGAPSITKDGVSVAKEIELSCPVANMGAQLVKEVASKTADAAGDGTTTATVLAYSIFKEGLRNITAGANPIEVKRGMDKAAEAIINELKKASKKVGGKEEITQVATISANSDHNIGKLIADAMEKVGKDGVITVEEAKGIEDELDVVEGMQFDRGYLSPYFVTNAEKMTAQLDNAYILLTDKKISSMKDILPLLEKTMKEGKPLLIIAEDIEGEALTTLVVNKLRGVLNIAAVKAPGFGDRRKEMLKDIAILTGGQVISEELGLSLENAEVEFLGKAGRIVIDKDNTTIVDGKGHSHDVKDRVAQIKTQIASTTSDYDKEKLQERLAKLSGGVAVIKVGAASEVEMKEKKDRVDDALSATKAAVEEGIVIGGGAALIRAAQKVHLNLHDDEKVGYEIIMRAIKAPLAQIAINAGYDGGVVVNEVEKHEGHFGFNASNGKYVDMFKEGIIDPLKVERIALQNAVSVSSLLLTTEATVHEIKEEKAAPAMPDMGGMGGMGGMGGMM
notes: also called recombinant Hsp60; source: E. coli BL21(DE3), purified (Ni-NTA, Sephadex G-75 gel filtration); not shown: His6, C-terminal, kept
B2: UreA-His (urease α subunit fused with a His tag on its C-terminus) (natural protein)
chain: T1 sequence
notes: also called wild-type UreA-His; urease subunit α; source: E. coli BL21(DE3), purified (Ni-NTA); not shown: His tag, C-terminal, kept
B3: UreA-His E25A (natural protein)
chain: T1 sequence with E25A
notes: source: E. coli BL21(DE3), purified as wild-type UreA-His; not shown: His tag, C-terminal, kept
B4: UreA-His D68A (natural protein)
chain: T1 sequence with D68A
notes: as for B3
B5: UreA-His R23A (natural protein)
chain: T1 sequence with R23A
notes: as for B3
B6: UreA-His K66A (natural protein)
chain: T1 sequence with K66A
notes: as for B3
B7: UreA-His K22A (natural protein)
chain: T1 sequence with K22A
notes: as for B3
B8: UreA-His Y15A (natural protein)
chain: T1 sequence with Y15A
notes: as for B3
B9: UreA-His K26A (natural protein)
chain: T1 sequence with K26A
notes: as for B3

Molecular target: T1, UreA-GST (UreA fused with GST tag on …)
Assay: pull-down; GST-fused proteins on glutathione Sepharose 4B beads (20 μl), incubated with 0.4 ml purified Hsp60 (1 mg/ml in 50 mM Tris-HCl, pH 8.0) at 4°C for 2 h; washed four times; Western blot (anti-His) and SDS-PAGE
Settings: both partners purified

Row | Binder | stoichiometry N
1 | B1 | ~1 Hsp60:UreA-GST

Molecular target: B1
Assay: SPR; BIAcore T100; Hsp60 immobilized on CM5 chip (~600 RU); UreA-His or mutants as analytes (0.36-2.19 μM); PBS pH 7.4, 30 μl/min, 25°C; kinetic analysis, global fit to 1:1 Langmuir model
Settings: both partners purified

Row | Binder | Kd [nM] | koff [s⁻¹] | kon [M⁻¹ s⁻¹]
2 | B2 | 17 | 0.000126 | 7286 ± 15
3 | B3 | 140 | 0.00567 | 40200 ± 1670
4 | B4 | 2000 | 0.00227 | 1160 ± 41
5 | B5 | 280 | 0.00144 | 5070 ± 85
6 | B6 | 210 | 0.00115 | 5400 ± 214
7 | B7 | 310 | 0.00179 | 5840 ± 146
8 | B8 | 150 | 0.00164 | 11200 ± 287
9 | B9 | 460 | 0.0122 | 26200 ± 250
